Measurements from patent publication US8735097B2, “Human antibiotic proteins” (Planton GmbH, priority 1999, dated 2014).
Where no end group is shown, it is not given here.

How the values were obtained:
Staph aureus = assay: MIC, antimicrobial activity against Staph aureus; format: cell-based, Staphylococcus aureus
Description: (§1) The following microorganisms were used for the tests: • Escherichia coli (E. coli)—ATCC (American Type Culture Collection) No. 11303 • Pseudomonas aeruginosa—ATCC No. 15442 • Staphylococcus aureus (clinical isolates from the dermatological hospital of Kiel) • Staphylococcus epidermidis (clinical isolates from the dermatological hospital of Kiel) • Candida albicans (clinical isolates from the dermatological hospital of Kiel)
(§2) The microorganisms were cultivated on Trypticase-soy-broth (TSB) agar plates at 37° C. If they were not needed for a long time, they were stored at 4° C. For the tests, in each case a single colony of the corresponding microorganisms was inoculated in 40 ml of TSB medium and incubated overnight at 37° C. while being shaken (250 rpm). To quantify the microorganisms, the optical density of the overnight cultures was measured at 620 nm (OD620), and the colony number was determined by flattening out corresponding dilution stages.
(§3) To be able to assess the dose-dependent range of action of an antimicrobial or antibiotic protein, a liquid culture testing system was used (cf. Ganz et al., 1985). […]
(§4) These batches were incubated in a 96-hole plate (Becton Dickinson, Heidelberg) for 3 hours at 37° C. while being shaken lightly (150 rpm). […] After 24 to 36 hours of growth, the colonies were counted out.

E. coli [1] = assay: MIC, antimicrobial activity against E. coli; format: cell-based, Escherichia coli
Description: as §1, §2, §3, §4

E. coli [2] = assay: Liquid culture test, LD90 by counting colony-forming units, E. coli; format: cell-based, Escherichia coli; conditions: 3 hours at 37° C., 5·10^4 KBE/ml, 10 mmol sodium phosphate buffer pH 7.4 with 1% TSB
Procedure: (§5) To be able to assess the dose-dependent range of action of an antimicrobial or antibiotic protein, a liquid culture testing system was used (cf. Ganz et al., 1985).
(§6) About 10 μl of a 1×10^7/ml dilution of the corresponding microorganisms in sodium-phosphate buffer (cf. 3.1) was added to 80 μl of sodium-phosphate buffer together with 1.25% TSB medium (v/v). 10 μl of 0.01% acetic acid was added with the corresponding concentrations of the antimicrobial or antibiotic protein (100 μg/ml, 50 μg/ml, 25 μg/ml, 12.5 μg/ml, and 6.25 μg/ml).
(§7) These batches were incubated in a 96-hole plate (Becton Dickinson, Heidelberg) for 3 hours at 37° C. while being shaken lightly (150 rpm). After the incubation time, tenfold dilution series were made from 50 μl of each of the batches with sodium-phosphate buffer and flattened out (100 μl) in each case in 3 parallel lines on TSB-agar plates. After 24 to 36 hours of growth, the colonies were counted out.
(§8) SAP-3 was incubated at the indicated concentrations at 37° C. for 3 hours with 5·10^4 KBE/ml (KBE=colony-forming units) of E. coli and Staphylococcus aureus in 100 μl of 10 mmol of sodium phosphate buffer (pH=7.4) together with 1% TSB (TSB=trypticase-soy broth). The antimicrobial activity of SAP-3 was determined by counting out the KBE on the subsequent day. 100 μl of the respective batches in tenfold dilution stages was flattened out on TSB plates in advance. […]

Staphylococcus aureus [3] = assay: Liquid culture test, LD90 by counting colony-forming units, Staphylococcus aureus; format: cell-based; conditions: 3 hours at 37° C., 10 mmol sodium phosphate buffer pH 7.4 with 1% TSB
Procedure: as §5, §6, §4
as §8, with “day.” for “day. 100 μl of the respective batches in tenfold dilution stages was flattened out on TSB plates in advance.”
SAP-2 was incubated at the indicated concentrations at 37° C. for 3 hours with 1·10^5 KBE/ml of the respective microorganisms in 100 μl of 10 mmol of sodium phosphate buffer (pH=7.4) together with 1% TSB. The antimicrobial activity of SAP-2 was determined by counting out the KBE on the subsequent day. […]

gram-negative bacteria = conditions: cited from earlier work
gram-positive bacteria = conditions: cited from earlier work
E. coli [4] = conditions: cited from earlier work
Klebsiella pneumoniae = conditions: cited from earlier work
Staphylococcus aureus [5] = conditions: cited from earlier work
Pseudomonas aeruginosa [6] = conditions: cited from earlier work
Candida albicans [7] = conditions: cited from earlier work
human RNA = assay: RNase activity; format: biochemical; conditions: 1.2 μg of SAP-2, one hour at 37° C.
Procedure: RNase activity: 1.2 μg of SAP-2 digested about 5 μg of human RNA in one hour at 37° C.

propionibacterium acnes = assay: Liquid culture test, LD90 by counting colony-forming units, propionibacterium acnes; format: cell-based; conditions: 3 hours at 37° C., 1·10^5 KBE/ml, 10 mmol sodium phosphate buffer pH 7.4 with 1% TSB
Procedure: as §5, §6, §7
(§9) SAP-2 was incubated at the indicated concentrations at 37° C. for 3 hours with 1·10^5 KBE/ml of the respective microorganisms in 100 μl of 10 mmol of sodium phosphate buffer (pH=7.4) together with 1% TSB. The antimicrobial activity of SAP-2 was determined by counting out the KBE on the subsequent day. 100 μl of the respective batches was flattened out in tenfold dilution stages on TSB plates in advance. Then, the plates were incubated at 37° C. overnight.

Pseudomonas aeruginosa [8] = assay: Liquid culture test, LD90 by counting colony-forming units, Pseudomonas aeruginosa; format: cell-based; conditions: 3 hours at 37° C., 1·10^5 KBE/ml, 10 mmol sodium phosphate buffer pH 7.4 with 1% TSB
Procedure: as §5, §6, §7, §9

Candida albicans [9] = assay: Liquid culture test, LD90 by counting colony-forming units, Candida albicans; format: cell-based; conditions: 3 hours at 37° C., 1·10^5 KBE/ml, 10 mmol sodium phosphate buffer pH 7.4 with 1% TSB
Procedure: as §5, §6, §7, §9

Molecule: SAP-3: human antibiotic protein of about 6 kDa isolated from lesional psoriasis scales, SEQ ID NO: 2, to be renamed hBD-3 (GIINTLQKYYCRVRGGRCAVLSCLPKEEQIGKCSTRGRKCCRRKK; listed as Homo sapiens)
- MIC, antimicrobial activity against Staph aureus (Staph aureus): <100 µg/mL
- MIC, antimicrobial activity against E. coli (E. coli [1]): <20 µg/mL
- LD90 for E. coli (E. coli [2]): 2.5 to 5 µg/mL
- LD90 for Staphylococcus aureus (Staphylococcus aureus [3]; 5·10^4 KBE/ml): 2.5 to 5 µg/mL

Molecule: hBD-2: second β-defensin isolated in humans, 41 amino acids, inducible peptide (GIGDPVTCLKSGAICHPVFCPRRYKQIGTCGLPGTKCCKKP; ends and bridges not checked; cysteine pairing not given here; UniProt O15263 24-64, looked up)
- LD90 against gram-negative bacteria (gram-negative bacteria): 10 µg/mL
- LD90 against gram-positive bacteria (gram-positive bacteria): exceeds 100 μg/ml

B1: TAP: first known epithelial β-defensin, which protects the trachea of bovines, 64 amino acids (protein, UniProt P25068 1-64, looked up)
chain: MRLHHLLLALLFLVLSAWSGFTQGVGNPVSCVRNKGICVPIRCPGSMKQIGTCVGRAVKCCRKK
modifications: ends and bridges not checked
notes: first known epithelial β-defensin, which protects the trachea of bovines, 64 amino acids
- minimum inhibition concentration against E. coli (E. coli [4]): 12 to 50 µg/mL
- minimum inhibition concentration against Klebsiella pneumoniae (Klebsiella pneumoniae): 12 to 50 µg/mL
- minimum inhibition concentration against Staphylococcus aureus (Staphylococcus aureus [5]): 12 to 50 µg/mL
- minimum inhibition concentration against Pseudomonas aeruginosa (Pseudomonas aeruginosa [6]): 12 to 50 µg/mL
- action on Candida albicans (Candida albicans [7]): destroyed

B2: SAP-2: human antibiotic protein of about 20 kDa isolated from lesional psoriasis scales, SEQ ID NO: 1, to be renamed RNase 7 (protein, listed as Homo sapiens)
chain: KPKGMTSSQWFKIQHMQPSPQACNSAMKNINKHTKRCKDLNTFLHEPFSSVAATCQTPKIACKNGDKNCHQSHGPVSLTMCKLTSGKYPNCRYKEKRQNKSYVVACKPPQKKDSQQFHLVPVHLDRVL
- MIC, antimicrobial activity against Staph aureus (Staph aureus): < 100 µg/mL
- MIC, antimicrobial activity against E. coli (E. coli [1]): < 50 µg/mL
- RNase activity: human RNA digested (human RNA): about 5 μg
- LD90 for Staphylococcus aureus (Staphylococcus aureus [3]; 1·10^5 KBE/ml): 7.5 to 15 µg/mL
- LD90 for propionibacterium acnes (propionibacterium acnes): 4 to 7.5 µg/mL
- LD90 for Pseudomonas aeruginosa (Pseudomonas aeruginosa [8]): 7.5 to 15 µg/mL
- LD90 for Candida albicans (Candida albicans [9]): 15 to 30 µg/mL
